The values that follow come from PMC8844851 (The Journal of Biological Chemistry, 2022).

In this assay the target is T1, C-terminally FLAG-tagged Cdc123 (S. cerevisiae, UniProt Q05791 1-360).
T1 construct: Cdc123 of S. cerevisiae; also called Cdc123^FLAG; source: S. cerevisiae, in lysate; not shown: FLAG, C-terminal, kept
T1 sequence (looked up): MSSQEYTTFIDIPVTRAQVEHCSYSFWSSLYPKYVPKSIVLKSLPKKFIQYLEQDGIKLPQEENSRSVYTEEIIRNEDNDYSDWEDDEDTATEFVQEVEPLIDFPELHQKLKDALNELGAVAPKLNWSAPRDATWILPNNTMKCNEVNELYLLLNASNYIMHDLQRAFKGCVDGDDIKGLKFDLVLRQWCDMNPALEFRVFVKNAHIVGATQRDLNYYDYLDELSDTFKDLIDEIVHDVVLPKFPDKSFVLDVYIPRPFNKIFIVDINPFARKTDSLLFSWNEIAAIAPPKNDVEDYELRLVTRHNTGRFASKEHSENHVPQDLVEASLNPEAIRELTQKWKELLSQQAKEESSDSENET
The experiment in a line: co-IP; Cdc123-FLAG precipitated with anti-FLAG beads from yeast extract, 4 °C, 2 h; subunit signal in IP normalised to whole cell extract, Gcd11 set to 100% (n = 3); also SUI2/SUI2 against sui2Δ/SUI2 diploid strains (n = 4). The settings on record: partners not purified.

B1: yeast eIF2γ (Gcd11) (natural protein, UniProt P32481 1-527, looked up)
chain: MSDLQDQEPSIIINGNLEPVGEPDIVEETEVVAQETQETQDADKPKKKVAFTGLEEDGETEEEKRKREFEEGGGLPEQPLNPDFSKLNPLSAEIINRQATINIGTIGHVAHGKSTVVRAISGVQTVRFKDELERNITIKLGYANAKIYKCQEPTCPEPDCYRSFKSDKEISPKCQRPGCPGRYKLVRHVSFVDCPGHDILMSTMLSGAAVMDAALLLIAGNESCPQPQTSEHLAAIEIMKLKHVIILQNKVDLMREESALEHQKSILKFIRGTIADGAPIVPISAQLKYNIDAVNEFIVKTIPVPPRDFMISPRLIVIRSFDVNKPGAEIEDLKGGVAGGSILNGVFKLGDEIEIRPGIVTKDDKGKIQCKPIFSNIVSLFAEQNDLKFAVPGGLIGVGTKVDPTLCRADRLVGQVVGAKGHLPNIYTDIEINYFLLRRLLGVKTDGQKQAKVRKLEPNEVLMVNIGSTATGARVVAVKADMARLQLTSPACTEINEKIALSRRIEKHWRLIGWATIKKGTTLEPIA
notes: Gcd11, eIF2 gamma subunit of S. cerevisiae, untagged endogenous protein detected with antiserum; source: endogenous, S. cerevisiae (W303 derivatives) lysate
As for B1, the “fold increase of coprecipitation in the sui2Δ/SUI2 strain over SUI2/SUI2” value worked out at 1.3 fold.
